Data: patent publication US11473089B2, “Aptamer for ADAMTS5 and use for aptamer for ADAMTS5” (RIBOMIC INC., priority 2017, dated 2022)

T1: ADAMTS5 (Homo sapiens, UniProt Q9UNA0)
T1 construct: purchased R&D systems
T1 sequence (Q9UNA0 262-930): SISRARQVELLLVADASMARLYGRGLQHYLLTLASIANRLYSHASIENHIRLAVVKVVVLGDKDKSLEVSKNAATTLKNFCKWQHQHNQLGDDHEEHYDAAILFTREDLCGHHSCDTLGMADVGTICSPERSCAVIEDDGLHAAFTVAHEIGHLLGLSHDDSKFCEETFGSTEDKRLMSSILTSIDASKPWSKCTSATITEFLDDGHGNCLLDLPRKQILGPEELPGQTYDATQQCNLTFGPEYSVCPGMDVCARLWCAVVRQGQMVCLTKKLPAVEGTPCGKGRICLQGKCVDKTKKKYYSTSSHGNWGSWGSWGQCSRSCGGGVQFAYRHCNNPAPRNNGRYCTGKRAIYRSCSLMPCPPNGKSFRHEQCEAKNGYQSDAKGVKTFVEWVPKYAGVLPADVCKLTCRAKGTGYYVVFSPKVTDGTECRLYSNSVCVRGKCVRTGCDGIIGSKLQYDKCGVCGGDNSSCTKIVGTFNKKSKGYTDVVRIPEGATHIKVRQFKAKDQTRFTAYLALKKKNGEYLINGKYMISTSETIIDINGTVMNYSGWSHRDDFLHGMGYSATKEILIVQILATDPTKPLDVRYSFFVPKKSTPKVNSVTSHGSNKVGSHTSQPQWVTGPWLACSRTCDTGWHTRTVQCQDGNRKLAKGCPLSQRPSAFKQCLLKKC


Assays:
ADAMTS5 [1] = target: T1, ADAMTS5; assay: binding activity to ADAMTS5 by surface plasmon resonance (Biacore T100); details: Table 7
Method: The binding activity of aptamers having the nucleotide sequences shown in SEQ ID NOs: 1 and 2 to ADAMTS5 was evaluated by the surface plasmon resonance method. Biacore T100 manufactured by GE Healthcare was used for the measurement. The SA chip was used as the sensor chip, which had streptavidin immobilized thereon. About 800 RU of a 16-nucleotide Poly dT with biotin at the 5′-terminal was bound on the chip. […] ADAMTS5 for analyte was prepared at 0.1 μM, and injected at a flow rate of 30 μL/min for 60 sec. As the running buffer, solution C was used. The solution C is a mixed solution of 300 mM sodium chloride, 5.4 mM potassium chloride, 1.8 mM calcium chloride, 0.8 mM magnesium chloride, 20 mM tris (pH 7.6), and 0.05% Tween20.
SEQ ID NO: 2 has a sequence with one base deletion from the continuous 4 G bases in the consensus sequence, and it was shown from the measurement results of the binding activity that the continuous 4 G bases in the consensus sequence are important for the activity of aptamers. Sensorgram showing the binding of an aptamer having the nucleotide sequence shown in SEQ ID NO: 1 to ADAMTS5 is presented in FIG. 2. In Table 1, “++” indicates those with the proportion of ADAMTS5 binding amount (RU value) to the amount of aptamer immobilized on the SA chip (RU value) of not less than 40%, “+” indicates those with the proportion of not less than 10% and less than 40%, and “−” indicates those with the proportion of less than 10%.
The binding activity and enzyme inhibitory activity of aptamers having nucleotide sequences shown in SEQ ID NOs: 16-25 to ADAMTS5 were measured. The binding activity was evaluated by the surface plasmon resonance method. For the measurement, a method similar to that in Example 1 was used. The enzyme inhibitory activity was measured by a method similar to that in Example 1. […] The negative control nucleic acid refers to the nucleic acid pool used in the first round of the SELEX method. The “++” indicates those with the proportion of ADAMTS5 binding amount (RU value) to the amount of aptamer immobilized on the SA chip (RU value) of not less than 40%, and “+” indicates those with the proportion of less than 40%. […] “n.d.” means not determined.
The binding activity of the nucleic acids shown in SEQ ID NOs: 30-45 to ADAMTS5 was measured. The binding activity was evaluated by the surface plasmon resonance method. In the Table, “++” indicates those with the proportion of ADAMTS5 binding amount (RU value) to the amount of aptamer immobilized on the SA chip (RU value) of not less than 40%, “+” indicates those with the proportion of not less than 10% and less than 40%, and “−” indicates those with the proportion of less than 10%.

ADAMTS5 [2] = target: T1, ADAMTS5; assay: ADAMTS5 enzyme inhibition, aggrecan G1-IGD-G2 cleavage, SDS-PAGE detection (evaluation method 1); assay type: biochemical
Method: Whether an aptamer having the nucleotide sequence shown in SEQ ID NO: 1 inhibits the enzyme activity of ADAMTS5 was evaluated by the following method. As a substrate of ADAMTS5, the G1-IGD-G2 domain of aggrecan (manufactured by R&D systems) was used. ADAMTS5 specifically cleaves in between the 392nd glutamic acid and the 393rd alanine in the G1-IGD-G2 domain and produces two fragments. These fragments have faster electrophoretic mobility than uncleaved G1-IGD-G2. Thus, the enzyme activity of ADAMTS5 can be measured by quantifying the band intensity of G1-IGD-G2 by SDS-PAGE electrophoresis. The assay was performed in a solution A buffer with a reaction mixture volume of 10 μL. First, a mixture (10 μL) of a nucleic acid and ADAMTS5 was prepared and incubated at 25° C. for 15 min. To a substrate solution (5 μL) diluted with solution A was added a mixture (5 μL) of the nucleic acid and ADAMTS5 to start the enzyme reaction. The final concentration of ADAMTS5 in the reaction solution was 5 nM, and the final substrate concentration was 50 μg/mL. The reaction solution was incubated at 37° C. for 2 hr, 2 μL of solution D was added, and the mixture was heated at 95° C. for 2 min to stop the enzyme reaction of ADAMTS5. Solution D contains 0.25 M tris (pH 6.8), 10% SDS, 50% glycerol, 0.25% bromo phenolblue, and 20% 2-mercaptoethanol. The heat-treated reaction solution was electrophoresed by 7.5% SDS-PAGE and stained with SYPRO Orange (manufactured by Sigma-Aldrich). The staining was performed according to the manual of Sigma-Aldrich and detected using STORM840 manufactured by GE Healthcare. For analytical curves, uncleaved substrates 1000 ng, 400 ng, 160 ng, 64 ng, 25.6 ng, 10.24 ng, and 4.1 ng were electrophoresed, and staining and detection were performed in the same manner. The amount of uncleaved substrate in each reaction solution was quantified from the band intensity and the standard curve. The substrate cleavage efficiency of ADAMTS5 under these reaction conditions was 80-100%. The inhibition rate of the test substance was calculated using the following equation. inhibition rate (%)=(Sapt−SE)/(S0−SE)×100 wherein Sapt is the amount of an uncleaved substrate with the addition of a test substance, SE is the residual amount of an uncleaved substrate with the addition of ADAMTS5, and S0 is the residual amount of an uncleaved substrate without the addition of ADAMTS5.
The concentration of an inhibitor necessary for inhibiting 50% of the enzyme activity (IC50) was determined. IC50 is a mean of four measurements.

Row | Molecule | binding activity (ADAMTS5 [1]) | inhibitory activity % 10 nM aptamer (ADAMTS5 [2]; Table 7) | inhibitory activity % 30 nM aptamer (ADAMTS5 [2]; Table 8) | inhibitory activity % 30 nM aptamer (ADAMTS5 [2]; Table 7) | inhibitory activity % 20 nM aptamer (ADAMTS5 [2]; Table 7, 20 nM aptamer)
1 | 21 (nucleic acid, 2'-fluoro at CU, RNA at AG, backbone not given here) GGGACAUGCGUAACUAUAUAGGGGCCUCCACAGCUGUAAAGCUUGGACUUAAACCAUAUAGAGUCCAGAUCGAGCA | ++ (proportion of ADAMTS5 binding amount (RU value) to the amount of aptamer immobilized on the SA chip (RU value) of not less than 40%) | 56.9% | 78.8% |  | 
2 | 19 (nucleic acid, aptamer; 2'-fluoro at CU, RNA at AG, backbone not given here) GGGACAUGCGUAACUUGAUAGGGGCCUCCACAGCUGAUAAGCUUGGACUCAAACCAUCAAGUCCAGAUCGAGCA | + (proportion of less than 40%) | 2.9% |  | 93.5% | 
3 | 23 (nucleic acid, aptamer; 2'-fluoro at CU, RNA at AG, backbone not given here) GGGACAUGCGUAACUGUAUAGGGGCCUCCACAGCUGAAAAGCUUGGACUCAAACCAUACAGUCCAGAUCGAGCA | ++ (proportion of ADAMTS5 binding amount (RU value) to the amount of aptamer immobilized on the SA chip (RU value) of not less than 40%) | 14.5% |  |  | 
4 | 16 (nucleic acid, aptamer; 2'-fluoro at CU, RNA at AG, backbone not given here) GGGACAUGCGUAACUUGAUAGGGGCCUCCGCAGCUGAUCAGCUCGGACUCAAACCAUCAAGUCCAGAUCGAGCA | + (proportion of less than 40%) | 46.3% |  | 93.6% | 
5 | 17 (nucleic acid, aptamer; 2'-fluoro at CU, RNA at AG, backbone not given here) GGGACAUGCGUAACUGUAUAGGGGCCUCCACAGCUGAAAAGCUUGGACUCAAACCAUACAGUCCAGAUCGAGCA | + (proportion of less than 40%) | 12.3% |  | 88.2% | 
6 | 22 (nucleic acid, aptamer; 2'-fluoro at CU, RNA at AG, backbone not given here) GGGACAUGCGUAACUGCAUAGGGGCCUCCACAGCUAUUCAGCUUGGACACAAACCAUGCAGUCCAGAUCGAGCA | ++ (proportion of ADAMTS5 binding amount (RU value) to the amount of aptamer immobilized on the SA chip (RU value) of not less than 40%) | 14.8% |  |  | 
7 | 25 (nucleic acid, aptamer; 2'-fluoro at CU, RNA at AG, backbone not given here) GGGACAUGCGUAACUGCAUAGGGGCCUCCACAGCUAUUCAGCUUGGACACAAACCAUGCAGUCCAGAUCGAGCA | ++ (proportion of ADAMTS5 binding amount (RU value) to the amount of aptamer immobilized on the SA chip (RU value) of not less than 40%) |  |  |  | 72.1%
8 | 24 (nucleic acid, aptamer; 2'-fluoro at CU, RNA at AG, backbone not given here) GGGACAUGCGUAACUUGAUAGGGGCCUCCACAGCCGGUAGGCUUGGACUCAAACCAUCAAGUCCAGAUCGAGCA | ++ (proportion of ADAMTS5 binding amount (RU value) to the amount of aptamer immobilized on the SA chip (RU value) of not less than 40%) | 20.2% |  |  | 
9 | 18 (nucleic acid, aptamer; 2'-fluoro at CU, RNA at AG, backbone not given here) GGGACAUGCGUAACUGCAUCGGGGCCUCCGCAGCUGUUAAGCUCGGACUCAAACCAUGCAGUCCAGAUCGAGCA | + (proportion of less than 40%) | 2.9% |  | 90.4% | 
10 | 20 (nucleic acid, aptamer; 2'-fluoro at CU, RNA at AG, backbone not given here) GGGACAUGCGUAACUGUAUAGGGGCCUCCGCAGCUAUUCAGCUCGGACAUAAACCAUACAGUCCAGAUCGAGCA | + (proportion of less than 40%) | 15.5% |  | 111.1% | 
